Patent US20250026849A1 (ARCELLX, published 2025)

T1: CD123 (Homo sapiens (Human), UniProt P26951 19-305, limits assumed)
T1 construct: The CD123 construct used in the ELISA is not described; also called CD123-Signal
T1 sequence: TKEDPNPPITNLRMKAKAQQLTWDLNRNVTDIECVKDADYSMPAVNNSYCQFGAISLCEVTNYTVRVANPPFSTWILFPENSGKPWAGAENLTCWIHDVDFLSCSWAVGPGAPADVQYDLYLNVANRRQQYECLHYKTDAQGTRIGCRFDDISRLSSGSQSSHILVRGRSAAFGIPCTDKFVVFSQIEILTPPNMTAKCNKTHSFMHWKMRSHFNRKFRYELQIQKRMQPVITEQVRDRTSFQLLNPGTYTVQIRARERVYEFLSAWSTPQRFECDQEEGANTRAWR


Biological target: T1, CD123
Test: ELISA
Design: unit not given here

Binder | ELISA_avg
D domain of SEQ ID NO: 632 (designed binder) MGSWYEFQERLDAIDSRLWALGGSEAELAWFEYTIAEFEKELQMYKGKGNPEVEALGTEAVAISEELMAYRHN | 5.5
D domain of SEQ ID NO: 621 (designed binder) MGSWMEFEDRLMAIVDRLWALGGSEAELADFEWNIAMFEEELQWYKGKGNPEVEALGDEAEAIEWELYAYRHN | 6.8
D domain of SEQ ID NO: 627 (designed binder) MGSWVEFDSRLAAIDYRLEALGGSEAELAWFEYTIANFEHTLQMYKGKGNPEVEALVYEAHAIATELQAYRHN | 3.4
D domain of SEQ ID NO: 629 (designed binder) MGSWIEFDERLDAIDFRLWALGGSEAELAWFEGWIAEFESDLQLYKGKGNPEVEALNEEANAIFHELSAYRHN | 7
D domain of SEQ ID NO: 619 (designed binder) MGSWHEFEKRLYAIEDRLIALGGSEAELAWFEDSIAWFEWDLQMYKGKGNPEVEALNEEADAIYQELDAYRHN | 3.6
D domain of SEQ ID NO: 623 (designed binder) MGSWEEFLFRLEAIQDRLWALGGSEAELAWFEYEIASFEDVLQSYKGKGNPEVEALSTEAKAIDYELFAYRHN | 8.2
D domain of SEQ ID NO: 618 (designed binder) MGSWYEFEERLDAIEDRLIALGGSEAELAIFEDIIAFFEQDLQYYKGKGNPEVEALEMEAEAISIELDAYRHN | 4.1
D domain of SEQ ID NO: 630 (designed binder) MGSWWEFDSRLDAIDFRLWALGGSEAELAWFEVEIADFEDWLQLYKGKGNPEVEALWHEADAIVTELYAYRHN | 3.2
D domain of SEQ ID NO: 625 (designed binder) MGSWFEFDDRLEAIFDRLWALGGSEAELAMFEFAIAEFEDALQEYKGKGNPEVEALYEEAVAIDEELYAYRHN | 4.1
D domain of SEQ ID NO: 626 (designed binder) MGSWFEFDARLMAINDRLWALGGSEAELAAFEYHIALFEDQLQMYKGKGNPEVEALTLEAVAINEELWAYRHN | 4
D domain of SEQ ID NO: 624 (designed binder) MGSWVEFDNRLFAIDERLWALGGSEAELAWFEEEIASFEDNLQKYKGKGNPEVEALQLEAFAIMEELDAYRHN | 3.3
D domain of SEQ ID NO: 628 (designed binder) MGSWTEFDERLDAIDWRLEALGGSEAELAWFEGDIALFEQYLQVYKGKGNPEVEALMEEADAIKAELDAYRHN | 4.5
D domain of SEQ ID NO: 622 (designed binder) MGSWEEFEDRLFAIDSRLWALGGSEAELAEFENIIASFEEVLQEYKGKGNPEVEALSVEAFAIDRELGAYRHN | 3.7
D domain of SEQ ID NO: 617 (designed binder) MGSWHEFEERLMAIEDRLWALGGSEAELAEFEQWIALFEYDLQEYKGKGNPEVEALGMEAFAINNELSAYRHN | 5.8
D domain of SEQ ID NO: 614 (designed binder) MGSWYEFSSRLNAIDDRLWALGGSEAELAYFETDIADFESLLQWYKGKGNPEVEALLNEADAIDYELYAYRHN | 3.8
D domain of SEQ ID NO: 620 (designed binder) MGSWIEFEDRLDAITDRLWALGGSEAELAEFEHQIAFFEEDLQWYKGKGNPEVEALHMEAEAIMEELGAYRHN | 9.5
D domain of SEQ ID NO: 615 (designed binder) MGSWFEFEYRLDAIIDRLFALGGSEAELAEFESMIANFEYSLQEYKGKGNPEVEALYFEADAIVDELTAYRHN | 4
D domain of SEQ ID NO: 631 (designed binder) MGSWYEFDERLDAIFDRLWALGGSEAELAYFEQVIATFEKTLQRYKGKGNPEVEALDTEAKAISWELDAYRHN | 3
D domain of SEQ ID NO: 616 (designed binder) MGSWLEFEYRLDAIYDRLFALGGSEAELAAFEQDIADFEKYLQYYKGKGNPEVEALWEEADAIMWELFAYRHN | 3.1

Continued, values first:

ELISA_avg | Binder
9.4 | D domain of SEQ ID NO: 633 (designed binder) MGSWEEFEDRLWAIDGRLYALGGSEAELAWFEQWIATFEEDLQDYKGKGNPEVEALEYEASAIFEELEAYRHN
6.5 | D domain of SEQ ID NO: 637 (designed binder) MGSWIEFMDRLWAIDQRLWALGGSEAELAWFEEEIAWFEEELQVYKGKGNPEVEALEWEATAISEELWAYRHN
4.5 | D domain of SEQ ID NO: 641 (designed binder) MGSWYEFVYRLRAIDERLDALGGSEAELAMFEFEIAFFEDQLQRYKGKGNPEVEALVDEAQAIDFELFAYRHN
4.5 | D domain of SEQ ID NO: 634 (designed binder) MGSWFEFGDRLEAIDERLYALGGSEAELAQFEWWIAEFEHHLQDYKGKGNPEVEALEYEADAIWGELHAYRHN
5.4 | D domain of SEQ ID NO: 638 (designed binder) MGSWEEFNWRLRAIDERLFALGGSEAELAWFEYDIAEFEEQLQVYKGKGNPEVEALRVEAAAIAEELYAYRHN
5.5 | D domain of SEQ ID NO: 642 (designed binder) MGSWWEFEDRLYAIDDRLWALGGSEAELAQFEREIAQFEIWLQEYKGKGNPEVEALDDEATAINSELFAYRHN
10 | D domain of SEQ ID NO: 640 (designed binder) MGSWYEFEWRLDAIDRRLWALGGSEAELADFEEEIADFEWMLQNYKGKGNPEVEALVDEASAIQTELWAYRHN
4.3 | D domain of SEQ ID NO: 644 (designed binder) MGSWEEFEWRLDAIDERLWALGGSEAELATFEYEIAIFENELQQYKGKGNPEVEALDSEAYAIERELGAYRHN
3.6 | D domain of SEQ ID NO: 643 (designed binder) MGSWDEFEFRLEAIDSRLWALGGSEAELAVFEYEIAQFEFMLQEYKGKGNPEVEALGMEAWAIENELFAYRHN
3.2 | D domain of SEQ ID NO: 639 (designed binder) MGSWWEFEIRLDAIDERLWALGGSEAELAWFEQSIAFFENDLQVYKGKGNPEVEALRWEANAIIEELFAYRHN
3.9 | D domain of SEQ ID NO: 635 (designed binder) MGSWFEFNDRLDAISERLSALGGSEAELAYFEWQIAVFEKTLQNYKGKGNPEVEALTLEANAIFEELEAYRHN
3.7 | D domain of SEQ ID NO: 645 (designed binder) MGSWYEFFDRLDAIDERLWALGGSEAELAWFEAEIAEFEMELQGYKGKGNPEVEALDVEAHAIEMELFAYRHN
4 | D domain of SEQ ID NO: 636 (designed binder) MGSWVEFMDRLEAIEERLSALGGSEAELAFFEWEIAEFEEHLQVYKGKGNPEVEALEWEALAITEELAAYRHN
